Laboratory results reported in the supplement of paper PMC12764529.
± gives the half width of the 95% confidence interval.

How the values were obtained:
[1] = folding stability dG unfold from chymotrypsin proteolysis; higher = more stable
How it was run: (§1)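 Designed mini-proteins (under 80 residues, no cysteine) in a PA-tagged cDNA display construct were digested with trypsin and chymotrypsin. Each protease was used at 11 concentrations (threefold dilutions) plus a no-protease condition, followed by sequencing. K50 was inferred by Bayesian fitting of sequencing counts, and unfolding free energy was derived against a sequence-predicted unfolded-state K50 and a shared folded-state K50, per protease or combined. Only designs with AlphaFold2 dimer inter-PAE above 15 were kept.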

[2] = folding stability dG unfold (combined trypsin and chymotrypsin); higher = more stable
How it was run: as §1

Sequence | folding stability dG unfold [1] | folding stability dG unfold [2]
SAGGSDLSSASFSSSPSTLPDGRSLTTYPAVTLPDGTVATLTVETDPATGAPTVTLTLGDTDIVLATSAGGS [r16_766_JUSTAS] | 0.0331 ± 0.32 kcal/mol | -0.474 ± 0.25 kcal/mol
SAGGSIPAEELAAALAALPELPAAEVEVVVEERPDEVVVDVRFADPEHPRHVALLRRAERLLAEAASAGGSA [r2_3_TrMRF] | 0.373 ± 0.3 kcal/mol | -0.305 ± 0.22 kcal/mol
SAGGSKEEIEKKLKELAEKLGVEVEDIEIKPLSNGKYIAVVKFKDNPNVYAVYEFDGDEIKIVEIKPSAGGS [r8_432_TrMRF] | 5.04 ± 0.26 kcal/mol | 5.15 ± 0.57 kcal/mol
SAGGSMKIVKKSEDPSPPVETIEVDPNLDIEKIINELKNQPNVKVDKSTDPNSSKKTITITRPVDGSAGGSA [r2_44_JUSTAS] | 0.0999 ± 0.058 kcal/mol | -0.224 ± 0.086 kcal/mol
SAGGSMLTVDYTVSPDVDLEEALAAVAEEVRAALLAETGGPVAVDVRPVSRPPDGTVRIRVDVALESAGGSA [r2_214_JUSTAS] | 0.991 ± 0.028 kcal/mol | 0.525 ± 0.12 kcal/mol
SAGGSMTIDDLKGMPVKEIAKRLGPGYEVNVDPNHGTLTLQHPNYQVTINVSPKDGYVKITEVTPHSAGGSA [r2_470_TrROS] | -0.808 ± 0.32 kcal/mol | < -1 kcal/mol
SAGGSRMRILNIDPESNRIRVRHPGKPFTFPVDNIEEVTIDPNDGYLTIKMKGETQTIPLDDPDAFSAGGSA [r2_48_TrROS] | 0.575 ± 0.16 kcal/mol | 0.0825 ± 0.18 kcal/mol
SAGGSSLDDPSLLPGVTLTVTLPETGEVLRVPSSEVVSGPLSEAAARVRAEVAAAHPGRPWEVRAESAGGSA [r2_392_JUSTAS] | -0.728 ± 0.42 kcal/mol | < -1 kcal/mol
SAGGSSLPPDVTLVEEEKVVETPDGTTIKVKTTTAVSAEGTVRRPVTETITYPEKPETIEKETEIDASAGGS [r16_563_JUSTAS] | 0.405 ± 0.15 kcal/mol | 0.122 ± 0.33 kcal/mol
SAGGSSPPTTTRTFAHPDGRTTELTVPTLPDGTPVVTTTTGGTTTTLSLSQLEKLPSSWTFTSTSSSAGGSA [r2_431_JUSTAS] | -0.27 ± 0.24 kcal/mol | -0.971 ± 0.64 kcal/mol
SAGGSSSTPRIKTSVSSSTTVTPLPGPTTLVTTTTTTTTTNPANGQQLSTTPTTSTTVVTPGTGAALSAGGS [r8_204_JUSTAS] | 0.797 ± 0.053 kcal/mol | 0.314 ± 0.12 kcal/mol
SAGGTIEEIKEALKKLPEGAVVEVTTENGEKLEFKSLEEIKKATITNENGEKIKITEVKVYPAKKEKSAGGS [r16_680_TrROS_Hall] | 0.569 ± 0.16 kcal/mol | < -1 kcal/mol
SAGKIVIEGEPEKLPEAIEEALKNNPDLKKVTIYYGDKSEEFEKDEEVKFFKPKKNKDGKPFMVLVVEDSAG [r5_130_TrMRF] | 0.756 ± 0.23 kcal/mol | -0.00581 ± 0.37 kcal/mol
SAGKTVKVTVEKEVTLENGNKVTVKVEKTVELKPPPPKKITLSPEEIEEIDKETGEIRNKKTNKVFKIKSAG [r5_807_TrROS_Hall] | -0.0446 ± 0.37 kcal/mol | < -1 kcal/mol
SAGMIVVPLPLSVEEAPAFARELLEAAEAAGLEVTIRVPDEAVAEAVREAAPPDAPVRIEPLEPGEPVESAG [r5_911_JUSTAS] | 0.58 ± 0.054 kcal/mol | 0.128 ± 0.11 kcal/mol
SAGMKIKVPFKAEVAPGAKPVKVEVWLGDGPPVATARLYYKVPGEEKTEVALIPIDPSTGKVTVFVKPGSAG [r5_136_TrMRF] | 0.592 ± 0.26 kcal/mol | 0.0709 ± 0.32 kcal/mol
SAGMTITIEDLDNGEKVTIEKNPEDPNMVQIEYPNGPEQTFPADEIAEELGLPPSLLQNGIRIKKIKISSAG [r5_156_TrROS] | -0.603 ± 0.23 kcal/mol | < -1 kcal/mol
SAGMTPDETVNILVSPDDSPEKVAEIIARHGPLTVTLPGSTREFTSEEEIRALYEQHPEDQVINVTVLSAGG [r19_95_JUSTAS] | -0.0129 ± 0.21 kcal/mol | -0.447 ± 0.28 kcal/mol
SAGPLVITVEETDGTVTITIYDAETGEKIAEFTFPKGAEVTIEDGYITIRNKETGETFVFKLPDGVKPSAGG [r19_4_TrROS_Hall] | 6.34 ± 0.27 kcal/mol | > 6 kcal/mol
SAGPPEPREIEIPVEGSWSDLRNQVKNVAEEAQPKGEPVQIKIEWGGRPRKYTLNDIDDVPPWMKVEIYSAG [r5_626_TrROS] | -0.0343 ± 0.48 kcal/mol | -0.449 ± 0.74 kcal/mol
SAGSHEAWFPIPELLNDPGLEDAWIRVTVHPTPNGNIDIDIEPEPVPKPKITPEEMQEQMEENNKQMKSAGG [r19_313_TrROS] | -0.435 ± 0.064 kcal/mol | < -1 kcal/mol
SAGSLPPDVTVPIPRRVRLSESDPALLEAARNGEPVYEELPGDVRVTVELRPLPPDELEVTERVYFPAGSAG [r5_223_JUSTAS] | 0.444 ± 0.12 kcal/mol | -0.000299 ± 0.27 kcal/mol

Sequence | folding stability dG unfold [1] | folding stability dG unfold [2]
SAGSMTSFPLTLPGGEKISSISVTASPGTEYTTNATLSKDKSKTVTINFDIKPGGEKVVKNISVTTPEESAG [r14_705_JUSTAS] | 0.391 ± 0.2 kcal/mol | -0.0181 ± 0.1 kcal/mol
SAGSVTPLPNGEVVTLTTEKIGNEVYLVTKTTLPDGSVETETTPLKPTPPPPAVPVDVSNPYRAKLALASAG [r5_715_JUSTAS] | -0.472 ± 0.35 kcal/mol | -0.814 ± 0.33 kcal/mol
SAGTKTIMGRPDDLPEAIEEALDKGPDLKKVKIYWGGREREIPLGDKIKITEPMPNPNGPPFMMIEIEDSAG [r5_130_TrROS] | -0.486 ± 0.38 kcal/mol | < -1 kcal/mol
SAGTTTITVPASEASEEEVQALIDEIEAANPHLKVKEVKETVVPLPTPKPVRLRTIIINAELPLPPELLSAG [r5_835_JUSTAS] | 0.447 ± 0.18 kcal/mol | -0.132 ± 0.47 kcal/mol
SAGVEVTSTSVDYTLDSSSPSPLRSSASPVRSAPPVEERPVELVDPSGERRLVTLKEIDPEKGGRVLSGSAG [r5_735_JUSTAS] | 0.229 ± 0.26 kcal/mol | 0.185 ± 0.24 kcal/mol
SAGVRKIPIESADDLRDEIDKSPGPVIIRNKGNKKYHRIDPDDLNNFAKNGAPIEIMPPDEMPPEMRKQSAG [r5_677_TrROS] | -0.0447 ± 0.14 kcal/mol | -0.332 ± 0.17 kcal/mol
SAKKVKIKVVEIEKKEDYVLIKIKLEKNVKKGEKVKIIIKNKNGEKKEITIKNGYIYIKMKKKDIEIKISAG [r14_350_TrROS_Hall] | 4.1 ± 0.29 kcal/mol | 3.93 ± 0.85 kcal/mol
SAMEELAKKLKELFPNLEIVSIEEEEVEVEGKKRKVLRIKIKNKNGELLEIEFETPEDKEIAELLKKLLSAG [r14_143_TrROS_Hall] | 5.53 ± 0.15 kcal/mol | > 6 kcal/mol
SAMELVLEESTELAEDPTNPGVLVPRTTTRELPVEPPPVVVIGSEENAKKLKKKGEVEVPPSGIILIPLSAG [r14_582_JUSTAS] | 0.517 ± 0.21 kcal/mol | 0.137 ± 0.24 kcal/mol
SAMPITVTVKKTVTLPPPGPEHQKLLDPNGTVRTVTVEETETITVSPEEIEKVKEEAEAKGIEEVTVVDSAG [r14_509_JUSTAS] | 0.732 ± 0.051 kcal/mol | 0.267 ± 0.15 kcal/mol
SDKDEKVIPSTSTSTDPETGTVTTTSTNTTITKGKIISPTTVTTTYPTATTTTTSTTIVDPNGNITTINSSA [r9_1015_JUSTAS] | 0.97 ± 0.042 kcal/mol | 0.299 ± 0.14 kcal/mol
SDLQWEFPVKKPKDQAEQAVEKAKKEFPGFKEVDDIDVERNPDNYRIKMRIRDDKMPPEVADKLRKALQDSA [r9_195_TrROS] | -0.454 ± 0.46 kcal/mol | < -1 kcal/mol
SGGATVEAFRRAPPGVRARILVEERGEELIVRLEIEGDDRRDEAEFPDPEEALARLLAAGVPVVVDELPASA [r9_1021_TrMRF] | -0.708 ± 0.76 kcal/mol | < -1 kcal/mol
SKKRILIVTDEKDLSPEEAAKLLEELGIEEVKVVKSAEELKNLPPEVDEVIVVTPPPPVKVEFSPEELEKSA [r9_750_TrROS_Hall] | -0.309 ± 0.069 kcal/mol | -0.626 ± 0.43 kcal/mol
SMKVLEGEEEAKKLAEEEGVPVIPVPADVSLEEIKKRIKETPGFPPDTVVATVIPKEPGRTTVIVLPLGKSA [r9_314_JUSTAS] | 0.474 ± 0.035 kcal/mol | 0.0112 ± 0.1 kcal/mol
SNLKIKWPNGHEIPIQKNNENVRIKFPGNGQEHPIPKEALEDNTPEEILDHLRDHFRQHGMPPMPVEIEKSA [r9_1211_TrROS] | 0.602 ± 0.083 kcal/mol | 0.192 ± 0.38 kcal/mol
SPEFKIAEVRVEAFPDGTVKAEVRFEGGTETAVFDAPVDPETGVVPVRARIYNPETGEVSEFTATGRIGASA [r9_825_TrMRF] | 0.0658 ± 0.16 kcal/mol | -0.325 ± 0.17 kcal/mol
SPKWKPIAEIPFKNGDPDEFIDKLKDAFPPDPPVQITFNGPDGPPMRIWIDPDEGRIDDIYPGGQIRIIPSA [r9_853_TrROS] | -0.986 ± 0.39 kcal/mol | < -1 kcal/mol
SSSMTIAKTEVETYPDGVIRTKETFPGSDTYREFDIPVDPSTGKMPVKSTLYDPKTGKSIETTSEIELLESA [r9_825_JUSTAS] | -0.537 ± 0.33 kcal/mol | -0.884 ± 0.64 kcal/mol
SVITANDIKEMRKLGIEPIEHDPDNRYRFKFPRMNQPIEVEVKPVPPPPPIEIPDNMDSPEEADKWQDTFSA [r9_649_TrROS] | 0.565 ± 0.16 kcal/mol | 0.259 ± 0.23 kcal/mol
SVPVTDETLYPDPSNALPISLVSQLGPDGSSVTTSITLPGRSMTQSVDPSTGRVTGNYPGTGLSSTVTSVPS [r1_125_JUSTAS] | 0.348 ± 0.051 kcal/mol | 0.0698 ± 0.11 kcal/mol
